# Measured values from US20220089699A1 (AstraZeneca / MedImmune, published 2022).
# T1: biotinylated ClfA001 (Staphylococcus aureus)
# T1 chain: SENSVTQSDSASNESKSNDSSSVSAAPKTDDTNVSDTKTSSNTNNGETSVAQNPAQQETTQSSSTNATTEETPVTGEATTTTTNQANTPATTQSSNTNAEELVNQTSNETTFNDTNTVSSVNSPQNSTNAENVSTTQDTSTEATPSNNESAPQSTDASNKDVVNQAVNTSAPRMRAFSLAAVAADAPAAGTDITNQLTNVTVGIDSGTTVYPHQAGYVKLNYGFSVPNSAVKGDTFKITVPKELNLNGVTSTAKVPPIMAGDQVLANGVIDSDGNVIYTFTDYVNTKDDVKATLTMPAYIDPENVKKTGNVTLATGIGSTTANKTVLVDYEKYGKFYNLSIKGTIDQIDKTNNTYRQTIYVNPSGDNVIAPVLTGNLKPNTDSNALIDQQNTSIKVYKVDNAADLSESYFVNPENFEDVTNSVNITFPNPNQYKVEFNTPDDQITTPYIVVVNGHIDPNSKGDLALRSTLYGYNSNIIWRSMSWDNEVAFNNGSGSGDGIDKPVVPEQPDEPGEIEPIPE
# Target: T1, biotinylated ClfA001
# Test: fibrinogen-binding inhibition ELISA: biotinylated ClfA001 (2 µg/ml) on a fibrinogen-coated plate, antibody titrated
binder,measurement,value
"SAR114 (antibody, V domains shown, also called anti-ClfA mAb SAR114) VH: QVQLQESGPGLVKPSETLSLTCTVSGGSIQNSYWSWIRQPPGKGLEWIGYLYSSGRTNYTPSLKSRVTISVDTSKNQFSLKLSSVTAADTAVYYCARTHLGGFHYGGGFWFDPWGQGTLVTVSS VL: DIQMTQSPSSLSASVGDRVTITCRASQSITSYLNWYQQKPGKAPKLLIYASSSLQSGVPSRFSGSGSGTDFTLTISSLQPEDFATYYCQESYSTPPTFGQGTKVEIK",IC50,3.02 µg/mL
